The source of these data is patent US20240325445A1 (Regeneron, published 2024).

The target of test [1] is human B-cell maturation antigen (BCMA) on cells (human) (UniProt Q02223). Put plainly: cell-based or functional assay.
The target in test [2] is irrelevant protein fused to hIgG1-Fc (human). Put plainly: flow cytometry; 10 ug/ml Fc isotype control on Jurkat/NFATLuc cells carrying the CAR, Alexa 647 secondary antibody. (Flow cytometry measures light scatter and fluorescence of single cells or particles in a stream.)
Test [3] concerns the target T1, human B-cell maturation antigen (BCMA) on cells (human, UniProt Q02223 1-184).
T1 sequence: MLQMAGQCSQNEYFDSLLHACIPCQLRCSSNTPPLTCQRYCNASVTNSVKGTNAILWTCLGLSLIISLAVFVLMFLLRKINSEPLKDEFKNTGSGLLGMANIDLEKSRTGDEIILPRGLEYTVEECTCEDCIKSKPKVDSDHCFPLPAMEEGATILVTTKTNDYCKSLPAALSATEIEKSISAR
Put plainly: cell-based or functional assay.

Test [4] concerns the target T2, BCMA extracellular domain fused to an hIgG1-Fc (human, UniProt Q02223 1-54).
T2 construct: also called BCMA ecto-hFc; BCMA-hFc; not shown: human IgG1 Fc
T2 sequence: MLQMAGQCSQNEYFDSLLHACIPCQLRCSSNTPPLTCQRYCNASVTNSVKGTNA
Description: flow cytometry; 10 ug/ml BCMA ecto-hFc on Jurkat/NFATLuc cells carrying the CAR, Alexa 647 secondary antibody. As for the experimental part:
Relative cell surface expression of the BCMA CAR constructs in Jurkat/NFATLuc cells was accessed by flow cytometry. […] Cells were then washed and fixed using a 50% solution of BD Cytofix (BD, Cat #554655) diluted in staining buffer. Samples were run on the Intellicyt iQue flow cytometer and analyzed by FlowJo 10.2 to calculate the mean fluorescent intensity (MFI). The signal to noise ratio (S:N) is determined by taking the ratio of the BCMA-hFc or Fc isotype control MFI to the secondary antibody alone MFI.

The target in test [5] is T1, human B-cell maturation antigen (BCMA) …. Put plainly: cell-based or functional assay. This is another data set of the same source.

For the molecule “control chimeric antigen receptor with an irrelevant scFv (17363)”, in test [1], the percent cytotoxicity (calcein release), H929 target cells, T effector:target ratio 50, mean was -0.8% and the percent cytotoxicity (calcein release), MOLP8 target cells, T effector:target ratio 50, mean is -3.1%.

B1: BCMA 16747 VL-VH chimeric antigen receptor (scFv of mAb16747) (scFv)
chain: DIQMTQSPSSVSASVGDRVTITCRASQGINNWLVWYQQKPGKAPKLLIYAATSLQSGVPSRFSGSGSGTDFTLTISSLQPEDFATYYCQQANSFPPTFGQGTKLEIKGGGGSGGGGSGGGGSQVQLVESGGGLVKPGGSLRLSCAASGFTFSDYYISWIRQAPGKGLEWVSYISSSGSSIKYADSVKGRFTISRDNAKNSLYLQMNSLRAEDTAVYYCAREGGNYGMDVWGQGTTVTVSSTTTPAPRPPTPAPTIASQPLSLRPEACRPAAGGAVHTRGLDFACDIYIWAPLAGTCGVLLLSLVITLYCKRGRKKLLYIFKQPFMRPVQTTQEEDGCSCRFPEEEEGGCELRVKFSRSADAPAYKQGQNQLYNELNLGRREEYDVLDKRRGRDPEMGGKPRRKNPQEGLYNELQKDKMAEAYSEIGMKGERRRGKGHDGLYQGLSTATKDTYDALHMQALPPR
notes: a linker before the hinge or a signal peptide may be present
As for B1, the S:N (Isotype-hFc) (ratio of MFI to secondary antibody alone) in test [2] came out at 1.3. Besides, in test [3], the “percent cytotoxicity (calcein release), H929 target cells, T effector:target ratio 0.78, mean” value was 0.9%; the “percent cytotoxicity (calcein release), H929 target cells, T effector:target ratio 1.56, mean” value is 1.8%; the “percent cytotoxicity (calcein release), H929 target cells, T effector:target ratio 3.13, mean” value was 2.9%; the “percent cytotoxicity (calcein release), H929 target cells, T effector:target ratio 6.25, mean” value was 4.2%. For the same molecule, in test [3], the “percent cytotoxicity (calcein release), H929 target cells, T effector:target ratio 12.5, mean” value is 9.3%; the “percent cytotoxicity (calcein release), H929 target cells, T effector:target ratio 25, mean” value was 19.4%; the “percent cytotoxicity (calcein release), H929 target cells, T effector:target ratio 50, mean” value was 29.3%; the “percent cytotoxicity (calcein release), MOLP8 target cells, T effector:target ratio 0.78, mean” value was -2.9%. For the same molecule, in test [3], the “percent cytotoxicity (calcein release), MOLP8 target cells, T effector:target ratio 1.56, mean” value is 0.2%; the “percent cytotoxicity (calcein release), MOLP8 target cells, T effector:target ratio 3.13, mean” value is 2.2%; the “percent cytotoxicity (calcein release), MOLP8 target cells, T effector:target ratio 6.25, mean” value was 5.8%; the “percent cytotoxicity (calcein release), MOLP8 target cells, T effector:target ratio 12.5, mean” value was 8.2%. In addition, in test [3], the “percent cytotoxicity (calcein release), MOLP8 target cells, T effector:target ratio 25, mean” value was 10.9% and the “percent cytotoxicity (calcein release), MOLP8 target cells, T effector:target ratio 50, mean” value was 14%. In addition, the “S:N (BCMA-hFc)” value in test [4] is 209 ratio of MFI to secondary antibody alone. In test [5], the “CAR-T Max Activity (NFAT-luciferase, S:N), APC Daudi” value (from here on “CAR-T Max Activity … APC Daudi”) is 14 S:N (highest RLU / lowest RLU); the “CAR-T Max Activity (NFAT-luciferase, S:N), APC RAJI” value (shortened to “CAR-T Max Activity … APC RAJI”) is 38.9 S:N (highest RLU / lowest RLU); the “CAR-T Max Activity (NFAT-luciferase, S:N), APC RPMI8226” value (shortened to “CAR-T Max Activity … APC RPMI8226”) is 12.5 S:N (highest RLU / lowest RLU).

B2: BCMA 16711 VL-VH chimeric antigen receptor (scFv of mAb16711) (scFv)
chain: DIQMTQSPSSVSASVGDRVTITCRASRGISSWLAWYQQKPGKAPKLLIHAASSLQSGVPSRFSGSGSGTDFTLTISSLQPEDFATYYCQQAISFPFTFGPGTKVDIKGGGGSGGGGSGGGGSQVQLVESGGGVVQPGRSLRLSCAASGFTFSTYGIHWVRQAPGKGLEWVAVILHDGSSNYYAESVKGRFIISRDNSKNTLYLQMNSLRAEDTALYYCTKRYSEAAGPNWFDPWGQGTLVTVSSTTTPAPRPPTPAPTIASQPLSLRPEACRPAAGGAVHTRGLDFACDIYIWAPLAGTCGVLLLSLVITLYCKRGRKKLLYIFKQPFMRPVQTTQEEDGCSCRFPEEEEGGCELRVKFSRSADAPAYKQGQNQLYNELNLGRREEYDVLDKRRGRDPEMGGKPRRKNPQEGLYNELQKDKMAEAYSEIGMKGERRRGKGHDGLYQGLSTATKDTYDALHMQALPPR
notes: 3C7 cells; a linker before the hinge or a signal peptide may be present; also called 16711 VL-VH CART; 16711 CAR
Consider B2, for which the S:N (Isotype-hFc) (ratio of MFI to secondary antibody alone) in test [2] was 1.2. Moreover, the “S:N (BCMA-hFc)” value in test [4] was 3.7 ratio of MFI to secondary antibody alone. In addition, in test [5], the “CAR-T Max Activity … APC Daudi” value is 2.6 S:N (highest RLU / lowest RLU); the “CAR-T Max Activity … APC RAJI” value was 7.9 S:N (highest RLU / lowest RLU); the “CAR-T Max Activity … APC RPMI8226” value was 1.8 S:N (highest RLU / lowest RLU).

B3: BCMA 16732 VL-VH chimeric antigen receptor (scFv of mAb16732) (scFv)
chain: DIQMTQSPSSLSASVGDRVTITCRTSQSIGNYLNWFQQKPGKAPKLLIYTASSLQNGVPSRFTGSGSGTDFTLTISSLQPEDFVIYYCQQSFSTPYTFGQGTKLEIKGGGGSGGGGSGGGGSEVQLVESGGGLVQPGRSLRLSCAASGFTFDDYAMHWVRQAPGKGLEWVSGISWNSGNMGYADSVKGRFTISRDNAKNSLFLQMHSLRAEDTAFYYCAKVRLTAFDFWGQGTLVTVSSTTTPAPRPPTPAPTIASQPLSLRPEACRPAAGGAVHTRGLDFACDIYIWAPLAGTCGVLLLSLVITLYCKRGRKKLLYIFKQPFMRPVQTTQEEDGCSCRFPEEEEGGCELRVKFSRSADAPAYKQGQNQLYNELNLGRREEYDVLDKRRGRDPEMGGKPRRKNPQEGLYNELQKDKMAEAYSEIGMKGERRRGKGHDGLYQGLSTATKDTYDALHMQALPPR
notes: 3C7 cells; a linker before the hinge or a signal peptide may be present; also called 16732 VL-VH CART; 16732 CAR
With B3, the S:N (Isotype-hFc) (ratio of MFI to secondary antibody alone) in test [2] was determined as 1. Besides, in test [4], the “S:N (BCMA-hFc)” value was 13.1 ratio of MFI to secondary antibody alone. Moreover, in test [5], the “CAR-T Max Activity … APC Daudi” value is 4.9 S:N (highest RLU / lowest RLU); the “CAR-T Max Activity … APC RAJI” value was 16.8 S:N (highest RLU / lowest RLU); the “CAR-T Max Activity … APC RPMI8226” value is 5.2 S:N (highest RLU / lowest RLU).
